Experimental data reported in patent US20220267458A1 (Innovent, published 2022).
Residue numbers refer to the chain shown, from its start. Each block holds one binder with its values, some of them ahead of it.

Key:
human GITR-His [1] = biological target: T1, human GITR-His (human, UniProt Q9Y5U5 26-161); test: PE-ELISA, sample OD against reference OD
T1 construct: Bought from Acro biosystems; also called GITR-His (Acro biosystems); antigen GITR-His
T1 sequence: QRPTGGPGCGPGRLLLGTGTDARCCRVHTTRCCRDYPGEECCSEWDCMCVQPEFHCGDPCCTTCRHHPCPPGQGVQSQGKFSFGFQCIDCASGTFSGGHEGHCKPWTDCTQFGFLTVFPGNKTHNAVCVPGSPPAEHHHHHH
Protocol: (§1) (2) crude antibodies were obtained by a conventional osmotic shock method, and the crude antibodies were transferred to an enzyme-labeled plate (Nunc) coated with the antigen GITR-His overnight, and incubated at room temperature for 1 h;

human GITR-His [2] = biological target: T1, human GITR-His; test: PE-ELISA, crude nanobody on coated GITR-His, anti-HA detection
Protocol: as §1
(3) unbound antibodies were washed off with PBST, then mouse anti-HA tag antibody (SinoBiological) was added, and placed at room temperature for 1 h;

human GITR-His [3] = biological target: T1, human GITR-His; test: ForteBio BLI, antibody on AHQ tip, human GITR-His 100 nM in solution, 1:1 model
Protocol: (2) Experimental procedure: 100 μl of SD buffer and antibodies (hcIgG-02, hcIgG-03, hcIgG-04, hcIgG-07, hcIgG-09, hcIgG-10, hcIgG-16 and hcIgG-20, control antibody), GITR-His (Acro biosystems) were added to a 96-well half-volume black polystyrene microplate. The plate was arranged according to the positions of the samples, the position of the sensor was selected, and the operation procedures were set as: Baseline, Loading ˜1 nm, Baseline, Association and Dissociation, each running for a time depending on the binding and dissociation rates of the sample, at a rotation speed of 400 rpm and a temperature of 30° C.
(3) A 1:1 binding model was adopted for kinetic analysis.

[4] = biological target: T2, human GITR overexpressed on CHO cells (CHO-GITR) (human, UniProt Q9Y5U5 26-241); test: flow cytometry on CHO-GITR cells, PE anti-human Fc detection, MFI; direct binding titration, the table row is labelled IC50, nM is taken from the concentration axis
T2 construct: whole, on cells; also called cell surface GITR protein; antigen expressed on the cell surface
T2 sequence (looked up): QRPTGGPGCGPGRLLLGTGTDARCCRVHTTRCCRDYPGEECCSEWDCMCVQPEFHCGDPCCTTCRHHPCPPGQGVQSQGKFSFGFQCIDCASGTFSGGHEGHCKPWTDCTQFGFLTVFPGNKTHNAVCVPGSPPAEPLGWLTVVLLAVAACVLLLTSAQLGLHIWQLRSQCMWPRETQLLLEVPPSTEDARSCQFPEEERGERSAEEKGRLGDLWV
Protocol: (1) Cell preparation: The pCHO1.0 vector (Invitrogen) carrying human GITR cDNA cloned to a multiple cloning site (MCS) was transfected into Chinese hamster ovary cancer cells (CHO) (Invitrogen) to produce human GITR-overexpressing CHO cells (CHO-GITR), the CHO cells (CHO-GITR) overexpressing human GITR on the surface thereof were counted, and diluted to 1×10⁶ cells/mL, and added to a U-bottom 96-well plate with 100 μL/well.
(1) Detection: The cell suspension was centrifuged at 400 g for 5 min to remove the cell medium. Serial dilutions of the sample were added to a U-shaped plate, and then the cells were resuspended and added to the plate with 100 μL/well. The plate was put onto the ice to stand for 30 min The cell suspension was centrifuged at 400 g for 5 min, and the supernatant was discarded. The cells were washed once with PBS, and then centrifuged at 400 g for 5 min to remove PBS. 100 μL of the solution of PE-conjugated anti-human Fc antibody (Jackson Immuno Research) diluted at a ratio of 1:200 was added to each well, and the cells were incubated in dark on the ice for 30 min The cell suspension was centrifuged at 400 g for 5 min, and the supernatant was discarded. The cells were washed once with PBS. The cells were resuspended with 100 μL of PBS.

- Ratio (+/-) (human GITR-His [1]): 15.1
- Sample OD (+) (human GITR-His [2]): 1.04 OD (405 nm)
B1: Nb-17 (VHH)
VHH: QVQLQESGGGSAQAGGSLRLSCAASRYTSSSNAMGWFRQAPGKQREWVAGSDTGAGITCNAASVKGRFTISQDVAKNTVYLQMNSLKPEDTAVYYCAADWFRGAFCSGDADFRYWGQGTQVTVSS
notes: Tested as crude extract from E. coli (osmotic shock)

- Ratio (+/-) (human GITR-His [1]): 18.5
- Sample OD (+) (human GITR-His [2]): 1.32 OD (405 nm)
B2: Nb-19 (VHH)
VHH: QVQLQESGGGSVQAGGSLRLSCAASGFTYSNYCMAWFRQAPGKEREGVAAIDSDGSTSYADSVKGRFTISQDNAKNTLYLQMNSLKPEDTAMYYCAAGNKKPYQLCNTDSRRYYHWGQGTQVTVSS
notes: as for B1

- Ratio (+/-) (human GITR-His [1]): 12.2
- Sample OD (+) (human GITR-His [2]): 1.41 OD (405 nm)
B3: Nb-20 (VHH)
VHH: QVQLQESGGGSVQAGGSLRLSCASSGYSRTSRWMAWFRQAPGKEREGVAAIYTGGSSTLYANSMADRVTISQDNAKNTVYLRMNNLKPEDTAMYYCAADKLAGDFWLVDRWRAWGQGTQVTVSS
notes: as for B1

- Ratio (+/-) (human GITR-His [1]): 7.55
- Sample OD (+) (human GITR-His [2]): 0.522 OD (405 nm)
B7: Nb-21 (VHH)
VHH: QVQLQESGGGSVQAGGSLRLSCRTSGYTNNLKSMAWFRQAPGKEREAVASIHNNGGPTYDYYAESVKGRFAISQDNAKNTLYLQMSSAKPEDTAVYYCAADNRFLGSGSWRLPSLYNYWGQGTQVTVSS
notes: as for B1

- Kd (human GITR-His [3]): 6.33 nM
- koff (human GITR-His [3]): 0.00214 s⁻¹
- kon (human GITR-His [3]): 338000 M⁻¹ s⁻¹
- IC50 [4]: 41.2 nM
B8: hcIgG-02 (antibody, V domains shown)
VH: QVQLQESGGGSVQAGGSLRLSCAASRDTYTRYFMGWFRQTPGKEGEGVAVLLPGGDYTFYADSVKGRFTITQDSAKNTVYLQMNSLKPEDTAMYYCAADVTVGSRWSQASNYNYWGQGTQVTVSS
notes: also called heavy-chain antibody of Nb-02

- Ratio (+/-) (human GITR-His [1]): 5.04
- Sample OD (+) (human GITR-His [2]): 1.25 OD (405 nm)
B12: Nb-15 (VHH)
VHH: QVQLQESGGGSVQAGGSLRLSCVVFGNIFRNYCMAWFRQAPGKEREGVVVIYTGGGSTYYADSVKGRFTISQDNAKNTVYLQMNSLKHEDTAMYYCAADQTTRYSSDYVNVGPCDMDSWGKGTQVTVSS
notes: as for B1

- Ratio (+/-) (human GITR-His [1]): 20.7
- Sample OD (+) (human GITR-His [2]): 1.67 OD (405 nm)
B13: Nb-16 (VHH)
VHH: QVQLQESGGGSVQAGGSLRLSCAASGYTYNKYSWGWFRQAPGKEREGVAGIDSDGSTSYADSVKGRFTISKDNTKNTLYLQMNSLKPEDTAMYYCAASDWVSAIQALGVLAVRPYEYWGQGTQVTVSS
notes: as for B1

- Ratio (+/-) (human GITR-His [1]): 3.29
- Sample OD (+) (human GITR-His [2]): 0.263 OD (405 nm)
B18: Nb-13 (VHH)
VHH: QVQLQESGGGSVQAGGSLRLSCTASSNTGRMGWFRQAPGKEREGVTAVDNFGRTNYAKYVKGRFTISKDNAKNTLYLQMNSLKPEDTAMYYCAADPWGRGAALTPNEYIYWGQGTQVTVSS
notes: as for B1

- Ratio (+/-) (human GITR-His [1]): 9.8
- Sample OD (+) (human GITR-His [2]): 1.01 OD (405 nm)
B19: Nb-18 (VHH)
VHH: QVQLQESGGGSVQTGGSLRLSCAASGLTSTTKYMGWFRQAPGKEREGVAGIYISSGATYYDDSVKGRFTISQDNAKNTVYLHINSLEPDDTAMYYCAASVLSVFRPLSSNQYHYWGQGTQVTVSS
notes: as for B1

- Ratio (+/-) (human GITR-His [1]): 4
- Sample OD (+) (human GITR-His [2]): 0.46 OD (405 nm)
B20: Nb-14 (VHH)
VHH: QVQLQEFGGGSVQAGGSLRLSCVASGFTFSNYCMGWFRQDPGKEREAVARIFVDGSTRYADAVKGRFTISKDNAKNTLYVQINSLKPEDTAMYYCTTPFPWTLCVDGPGAYKYWGQGTQVTVSS
notes: as for B1

- Kd (human GITR-His [3]): 7.92 nM
- koff (human GITR-His [3]): 0.00202 s⁻¹
- kon (human GITR-His [3]): 256000 M⁻¹ s⁻¹
B22: hcIgG-04 (antibody, V domains shown)
VH: QVQLQESGGGSVQAGGSLRLSCTASGFTVDDSGMGWYRQAPGNECELVSTISSDGSTYYADSVKGRFTISQDNAKNTVYLQMNSLKPEDTAVYYCAAPRVGVGWVRPCDYEYNYWGQGTQVTVSS
notes: also called heavy-chain antibody of Nb-04

- Ratio (+/-) (human GITR-His [1]): 10
- Sample OD (+) (human GITR-His [2]): 0.606 OD (405 nm)
B24: Nb-22 (VHH)
VHH: QVQLQESGGGSVQAGGSLRLSCAASGYTFTTAYMGWFRQAPGKEREGVAAIDSDGRTEYADAVKGRFTISKDNAKNTLYLQMNSLKPEDTAMYYCAADKDDWLLLHGRSLFPSAFAYWGQGTQVTVSS
notes: as for B1

The remaining lines, values behind:

B4: Nb-01 (VHH)
VHH: QVQLQESGGGLVQPGGSLRLSCTASGLTFDDYAMGWFRQAPGKGREGVSLITWSGSSTYYADSVKGRFTVSRDTATNTLVLQMNSLKPEDTAMYYCAADPRSGGYYSSPPPPAVYRYLRFWGQGTQVTVSS
notes: as for B1
- Ratio (+/-) (human GITR-His [1]): 6.23
- Sample OD (+) (human GITR-His [2]): 0.467 OD (405 nm)

B5: Nb-07 (VHH)
VHH: QVQLQESGGGLVQAGGSLKLSCTVSGFAFGSSHMSWVRRAPGKGLEWVSTIHSGGGFGDYANSVQGRFTISRDVAKNTLYLQMNSLKPEDTAIYYCALATDWRKPPGQGTQVTVSS
notes: as for B1
- Ratio (+/-) (human GITR-His [1]): 32.6
- Sample OD (+) (human GITR-His [2]): 2.35 OD (405 nm)

B6: Nb-10 (VHH)
VHH: B5 VHH with A14P, K19R, T23A, V24A
notes: as for B1
- Ratio (+/-) (human GITR-His [1]): 29.9
- Sample OD (+) (human GITR-His [2]): 2.27 OD (405 nm)

B9: Nb-02 (VHH)
VHH: B8 VH
notes: as for B1
- Ratio (+/-) (human GITR-His [1]): 20.7
- Sample OD (+) (human GITR-His [2]): 1.43 OD (405 nm)

B10: Nb-12 (VHH)
VHH: B8 VH with G45P, D56A
notes: as for B1
- Ratio (+/-) (human GITR-His [1]): 4.53
- Sample OD (+) (human GITR-His [2]): 0.444 OD (405 nm)

B11: Nb-03 (VHH)
VHH: QVQLQESGGGSVQAGGSLRLSCAASGYTYSGYCMGWFRQAPGKEHEGVASIVSGLGRPYYADSVKGRFTISQDNAKNTVYLQMNSLKPEDTAMYYCAAEWATKLCSEIPATEWDYWGQGTQVTVSS
notes: as for B1
- Ratio (+/-) (human GITR-His [1]): 11.7
- Sample OD (+) (human GITR-His [2]): 0.786 OD (405 nm)

B14: Nb-09 (VHH)
VHH: QVQLQESGGGLVQPGGSLRLSCGASGFTFSSTAMWWFRQAPGKGLEWVSSITSDVSGTYYADSVQGRFTISRDNGKNTVYLQMNSLRSEDTALYYCATSCGFSGGTWSCKYRGQGTQVTVSS
notes: as for B1
- Ratio (+/-) (human GITR-His [1]): 23.1
- Sample OD (+) (human GITR-His [2]): 1.45 OD (405 nm)

B15: Nb-05 (VHH)
VHH: QVQLQESGGGLVQPGGSLRLSCAASGFTFSNKVMSWVRQAPGKGFEWVSSIARGGDWTTYADSVEGRFTISRDNAKNTLYLQLNSLKTEDTAMYYCAQAENWKTPPGQGTQVTVSS
notes: as for B1
- Ratio (+/-) (human GITR-His [1]): 21.5
- Sample OD (+) (human GITR-His [2]): 1.41 OD (405 nm)

B16: Nb-06 (VHH)
VHH: QVQLQESGGGSVQAGGSLRLSCAASGYAYTRNCMGWFRQAPGKEREEVATINLGGGSTYYADSVKGRFAISQDNAKNTVYLQMNNLKPEDTAMYYCAAIAQYGGSLCSNFGWYNLWGQGTQVTVSS
notes: as for B1
- Ratio (+/-) (human GITR-His [1]): 3.31
- Sample OD (+) (human GITR-His [2]): 0.314 OD (405 nm)

B17: Nb-08 (VHH)
VHH: QVQLQESGGGSVQAGGSLRLSCAASGYTSSRKYIGWFRQAPGKQREWVAGIDTGAGGTCTIASVQGRFTISQDVAKNTLYLQIDSLKPEDTAVYYCAADWVRGGFCSGDADFRYWGQGTQVTVSS
notes: as for B1
- Ratio (+/-) (human GITR-His [1]): 23
- Sample OD (+) (human GITR-His [2]): 1.71 OD (405 nm)

B21: Nb-04 (VHH)
VHH: B22 VH
notes: as for B1
- Ratio (+/-) (human GITR-His [1]): 22
- Sample OD (+) (human GITR-His [2]): 1.63 OD (405 nm)

B23: Nb-11 (VHH)
VHH: B22 VH with A14T, V29F, D31A, S32A, G33D, T50I
notes: as for B1
- Ratio (+/-) (human GITR-His [1]): 7.78
- Sample OD (+) (human GITR-His [2]): 0.552 OD (405 nm)
